Assay [1] deals with fluorescently-labeled nucleosome core particle (NCP) (human). Nature of the assay: fluorescence polarisation.
The target in assay [2] is fluorescently-labeled NCP carrying H2AK13ub and H2AK15ub (NCP^ub) (human) (UniProt P0CG48). Nature of the assay: fluorescence polarisation. On the technique in general: Polarisation of emitted light reports the rotation of a fluorescent probe.

Kd data for three substances are collected here from PMC10939898.

pKd: −log10 of the molar value.

In general, pKd refers to the negative decadic logarithm of the Kd, by convention in mol/L. In the case of “RNF168 RING domain (RNF168^R, aa 1–94) (from UniProt Q8IYW5 1-94) (domain or fragment)”, in assay [1], the pKd is 6.40. In assay [2], “RNF168 MIU2-LRM (aa 430–481) (from UniProt Q8IYW5 430-481) (domain or fragment)” had a pKd of 5.85. On to “full-length human RNF168 (RNF168^FL, aa 1–571) (from UniProt Q8IYW5 1-571) (natural protein)”, for which the pKd is 7.30 in assay [2] and 6.92 in assay [1].
